Test results reported in PMC6606709, “Granzyme A Stimulates pDCs to Promote Adaptive Immunity via Induction of Type I IFN” (Frontiers in Immunology, 2019).

Biological target: the molecule itself
Experiment: SDS-PAGE under reduced and non-reduced conditions; reduced and non-reduced GzmA run on 10-12 % SDS-PAGE, Coomassie Brilliant Blue stain

B1: recombinant granzyme A (GzmA), mouse, residues 29-260, histidine-tagged (enzyme, UniProt P11032 29-260, looked up)
chain: IIGGDTVVPHSRPYMALLKLSSNTICAGALIEKNWVLTAAHCNVGKRSKFILGAHSINKEPEQQILTVKKAFPYPCYDEYTREGDLQLVRLKKKATVNRNVAILHLPKKGDDVKPGTRCRVAGWGRFGNKSAPSETLREVNITVIDRKICNDEKHYNFHPVIGLNMICAGDLRGGKDSCNGDSGSPLLCDGILRGITSFGGEKCGDRRWPGVYTFLSDKHLNWIKKIMKGSV
notes: mouse granzyme A, residues 29-260; also called recombinant GzmA
stoichiometry N: 2
